Results as given in patent publication US12702694B2, “Methods for identification, assessment, prevention, and treatment of metabolic disorders using SLIT2” (Dana-Farber Cancer Institute, Inc., priority 2015, dated 2026).

What was measured:
[1] = system: receptor tyrosine kinases and intracellular kinases; test: Phosphokinase array in primary inguinal cells; type: cell-based, Mus musculus; conditions: Slit2-C vs lacZ adenovirus, primary inguinal adipocytes
Procedure: (§1) For Western blotting, homogenized tissues, whole cell lysates, or concentrated serum free conditioned medium were lysed in RIPA buffer containing protease inhibitor cocktail (Thermo Scientific) and phosphatase inhibitor cocktail (Thermo Scientific), separated by SDS-PAGE and transferred to Immobilon-P® membranes (Millipore). For Western blotting of plasma samples, 1 μl of plasma was prepared containing 2× sample buffer (Invitrogen) with reducing agent, boiled and analyzed using Western blot against V5, FLAG, or the indicated antibody. V5-antibody was from Life Technologies and anti-Flag M2-HRP (A8592) from Sigma Aldrich. Anti-Slit2 antibody used was from Abcam (Abcam ab134166). Phospho-PKA Substrate, phospho-PKC Substrate, phospho-ERK1/2, total ERK, phospho-AKT, total AKT, phospho-AMPK, total AMPK, phospho-ATGL, ATGL, phospho-EGFR and EGFR were from Cell Signaling. Protein array was from R&D Systems (Proteome Profiler Mouse Phospho-RTK Array Kit, ARY014). Silverstain (SilverQuest™ Silver Staining Kit, LC6070) was purchased from Thermo Fisher.

primary brown fat cells = test: Thermogenic gene expression in primary brown fat cells with adenoviral overexpression; type: cell-based, Mus musculus; conditions: Slit2-C vs LacZ virus, day 7; FIG. 6B
Procedure: Inguinal and brown stromal-vascular fractions were obtained from 6 weeks old male or newborn mice (postnatal days 5-10) for white and brown fat cultures, respectively. Inguinal fat tissue was dissected and washed with PBS, minced and digested for 45 min at 37° C. in PBS containing 10 mM CaCl2), 2.4 U/ml dispase II (Roche) and 10 mg/ml collagenase D (Roche). Brown fat tissue was dissected, washed with PBS, minced and digested for 45 min at 37° C. in PBS containing 1.3 mM CaCl2, 123 mM NaCl, 5 mM KCl, 5.0 mM glucose, 100 mM HEPES, 4% BSA and 1.5 mg/ml collagenase B (Roche). Digested tissue was filtered through a 100-μm cell strainer and centrifuged at 600 g for 10 min. […] For adenoviral overexpression of Slit2-FL, Slit2-N, Slit2-C, LacZ or Cre, virus was added at day 2 of differentiation at a titer of 10^8 particles/well and cells were analyzed at day 6-7. […]
(§2) RNA was extracted from cultured cells or frozen tissue samples using TRIzol®, purified with QIAGEN RNeasy® minicolumns. Normalized RNA was reversed transcribed using a high-capacity cDNA reverse transcription lot (Applied Biosystems) and cDNA was analyzed by qRT-CPR. Relative mRNA levels were calculated using the comparative CT method and normalized to cyclophilin miRNA. […]

[2] = system: diet-induced obese (DIO) mice; test: Adipose gene and UCP1 protein expression after adenovirus injection in diet-induced obese (DIO) mice; type: in vivo, Mus musculus
Procedure: All animal experiments were approved by the Institutional Animal Care and Use Committee of the Beth Israel Deaconess Medical Center. Mice (Mus musculus) were obtained from Jackson Laboratories, maintained in 12 hour light-lark cycles (6 a.m.-6 p.m.) at 22° C., and fed a standard irradiated rodent chow diet or a high-fat diet (60% fat) for 12-20 weeks. AAV-8 viruses (Penn Vector Core) and adenoviruses (Vector Biolabs or constructed in-house) were injected at a titer of 10^11 or 10^10 per mouse, respectively. All experiments were done with male mice. The aP2-PRDM16 transgenic mice have been previously described in Seale et al. (2011) J. Clin. Invest. 121:96-105. PRDM16-floxed mice were crossed with adiponectin-Cre and were maintained on a pure C57BL/6 background (Cohen et al. (2014) Cell 156:304-316). The Slit2-floxed mice have been described previously in Rama et al. (2015) Nat. Med. 21:483-491. Lean C57BL/6 mice were obtained from Jackson Laboratories and were […].
as §2, with “[…]. All primers used are listed with their sequences in Table 3 as follows:” for “miRNA.”
as §1

B1: Slit2-C: ~50 kDa C-terminal cleavage fragment of Slit2 beginning at TSP (SEQ ID NO: 22); adenovirally expressed or purified FLAG-tagged protein (protein, listed as Homo sapiens)
chain: TSPCDNFDCQNGAQCIIRINEPICQCLPGYLGEKCEKLVSVNFVNKESYLQIPSAKVRPQTNITLQIATDEDSGILLYKGDKDHIAVELYRGRVRASYDTGSHPASAIYSVETINDGNFHIVELLTLDSSLSLSVDGGSPKVITNLSKQSTLNFDSPLYVGGMPGKNNVASLRQAPGQNGTSFHGCIRNLYINSELQDFRKMPMQTGILPGCEPCHKKVCAHGMCQPSSQSGFTCECEEGWMGPLCDQRTNDPCLGNKCVHGTCLPINAFSYSCKCLEGHGGVLCDEEEDLFNPCQMIKCKHGKCRLSGVGQPYCECNSGFTGDSCDREISCRGERIRDYYQKQQGYAACQTTKKVSRLECRGGCAGGQCCGPLRSKRRKYSFECTDGSSFVDEVEKVVKCGCARCAS
modifications: FLAG tag
notes: adenovirally expressed or purified FLAG-tagged protein
- phospho-EGFR and phospho-ERK1/2 (only two of 39 kinases tested) [1]: robust phosphorylation changes
- thermogenic gene expression response of primary brown fat cells (primary brown fat cells): responded stronger
- Fas in inguinal and brown fat ([2]; 16-week DIO mice, 7 days post-injection, FIGS. 7A-7B): reduction
- Hsl and Atgl expression ([2]; 16-week DIO mice, FIGS. 7A-7B): unchanged
- Resistin in brown fat ([2]; FIG. 7C): unchanged
- brown fat levels of Leptin ([2]; FIG. 7C): marked reduction
- induction of Ucp1 protein expression in BAT ([2]; Western blot quantification relative tubulin, DIO mice 7 days post-injection, FIG. 7D): 1.3 fold
